# Experimental data as given in patent publication US20240076371A1, “COMPOSITIONS AND METHODS FOR TREATING OSTEOARTHRITIS, RHEUMATOID ARTHRITIS, AND JOINT AND TENDON DISORDERS” (BOARD OF REGENTS, THE UNIVERSITY OF TEXAS SYSTEM, priority 2021, published 2024).
# Read-outs that look alike come from different tables or passages of the source.
# Assays:
# [1] = system: post-traumatic OA model (DMM) in male C57BL/6 mice; format: in vivo, mouse
# Description: Materials and Methods. Animals and surgery model. The mice used were of C57BL/6 background. The mice were housed in a temperature-controlled room with a light/dark cycle of 12 hours under specific pathogen-free conditions. Food and water were provided ad libitum. Destabilization of the medial meniscus (DMM) surgery was performed on the right knee joint of mice (Glasson S S, et al. Osteoarthritis and cartilage. 2007; 15(9):1061-9). Briefly, a 3 mm longitudinal incision over the distal patella to proximal tibial plateau was made. The joint capsule immediately medial to the patellar tendon was incised with a #15 blade and the joint capsule opened with micro-iris scissors. Blunt dissection of the fat pad over the intercondylar area was then performed to expose the intercondylar region, providing visualization of the meniscotibial ligament of the medial meniscus. Mild hemorrhage from the fat pad upon blunt dissection was controlled by pressure from absorption spears. Sectioning of medial meniscotibial ligament with micro-surgical knife, with the blade directed proximo-laterally, gave destabilization of the medial meniscus (DMM). Sham surgery was performed with the ligament visualized but not transected. Histology. At 8 weeks after the induction of osteoarthritis (OA), the femur and tibia bones isolated from DMM and sham operated mice were fixed in 4% paraformaldehyde for 2 days prior to decalcification with 10% EDTA (pH 7.5) for 3 weeks. The samples were embedded in paraffin, and 5-μm-thick sections were collected on glass slides. Sections were deparaffinized in xylene, followed by a graded series of alcohol washes. To determine the extent of cartilage deterioration, sections were stained with Safranin O/Fast Green. OARSI scoring was performed to evaluate knee joint articular cartilage destruction (Glasson S S, et al. Osteoarthritis and cartilage. 2010; 18 Suppl 3:S17-23). Specifically, both medial femoral condyle and medial tibial plateau were analyzed through three-level sections of the joints and the severity of OA is expressed as the averaged and summed scores for the entire joint. Results. Inhibition of Cx43 hemichannel ameliorates histopathological changes of OA. To investigate the function of Cx43 hemichannel in OA progression, post-traumatic OA model was induced in male C57BL/6 mice by surgically destabilization of the medial meniscus (DMM). The anti-Cx43 hemichannel blocking antibody (M1 antibody) or saline was administered by intraperitoneal injection twice at 30 minutes and four weeks post-surgery (FIG. 1A). Histological staining of Safranin O/Fast Green was utilized to visualize the severity of articular cartilage damage, which was determined using the Osteoarthritis Research Society International (OARSI) scoring system (Glasson S S, et al. Osteoarthritis and cartilage. 2010; 18 Suppl 3:S17-23) by two blinded observers (FIGS. 1B-D). […] Moreover, synovium hyperplasia was quantified by the synovitis score ([…], et al. Pathology, research and practice. 2002; 198(5):317-25; and Huesa C, et al. Annals of the rheumatic diseases. 2016; 75(11):1989-97).
# [2] = system: post-traumatic OA model (DMM) in male C57BL/6 mice; assay: DMM OA model: micro-computed tomography of tibia subchondral bone; format: in vivo, mouse; details: eight weeks post-surgery, vs saline-treated DMM mice
# Description: Destabilization of the medial meniscus (DMM) surgery was performed on the right knee joint of mice (Glasson S S, et al. Osteoarthritis and cartilage. 2007; 15(9):1061-9). Briefly, a 3 mm longitudinal incision over the distal patella to proximal tibial plateau was made. The joint capsule immediately medial to the patellar tendon was incised with a #15 blade and the joint capsule opened with micro-iris scissors. Blunt dissection of the fat pad over the intercondylar area was then performed to expose the intercondylar region, providing visualization of the meniscotibial ligament of the medial meniscus. Mild hemorrhage from the fat pad upon blunt dissection was controlled by pressure from absorption spears. Sectioning of medial meniscotibial ligament with micro-surgical knife, with the blade directed proximo-laterally, gave destabilization of the medial meniscus (DMM). Sham surgery was performed with the ligament visualized but not transected.
# Micro-computed tomography. Following behavioral tests, mice were sacrificed and hindlimbs were dissected immediately and fixed in 4% paraformaldehyde. The structural properties of subchondral bone were evaluated using a 3D reconstruction of μCT imaging system (Brüker SkyScan 1173; Brüker microCT, Kontich, Belgium). Samples were scanned in saline with the following settings: 60 kV, […] beam intensity, 0.5 mm aluminum filter, 0.7° rotation step, 4-frame averaging, 1090 ms integration time, 1024×1024 pixel matrix, and a 10 μm isotropic voxel dimension. After scanning, noise was removed from the images by eliminating disconnected objects smaller than 4 pixels in size. Morphometric analysis was performed on 50 slices extending proximally, beginning with the first slice in which the tibia condyles had fully merged. The subchondral bone was segmented from the cortical shell manually on key slices using a contouring tool, and the contours were morphed automatically to segment the trabecular bone on all slices. The morphometry was reconstructed and analyzed. A grayscale value of 95 in a set of 8-bit slices was set as the threshold and was applied to the specimens after comparing grayscale and binarized images in both groups. After thresholding, the BV/TV (%), Tb.Th (mm), Tb.Sp (mm), and Tb.N (mm^−1) were quantified.
molecule,measurement,setting,value
"M1 antibody: antibody with variable heavy chain SEQ ID NO: 58 and variable light chain SEQ ID NO: 60; inhibits or blocks opening of Cx43 hemichannel (antibody, V domains shown) VH: EVQLQQPGAELVKPGASVKLSCKASGYTFTSYYMYWVKQRPGQGLEWIGGINPSNGGTNFNEKFKNKATLTVDKSSSTAYMQLSSLTSEDSAVYYCTREGNPYYTMNYWGQGTSVTVSS VL: DIVMTQSPSSLSVSAGEKVTMSCKSSQSLLNSGNQKTYLAWYQQKPGQPPKLLIYGASTRESGVPDRFTGSGSGTDFTLTISSVQAEDLAVYYCQNDHSYPFTFGSGTKLEIK",OARSI scores in medial tibial plateau and medial femoral condyle,"[1]; DMM mice, i.p. twice at 30 minutes and four weeks post-surgery, 8 weeks after DMM, vs saline",significant reduction
same,Summed OARSI score of MTP and MFC (structural integrity of the articular cartilage),"[1]; DMM mice, i.p. twice, 8 weeks after DMM, three-level sections",significantly improved structural integrity
same,pathologic changes in the articular cartilage of sham-operated mice,"[1]; mouse, in vivo, ip",did not exhibit pathologic changes
same,OARSI scores in medial tibial plateau and medial femoral condyle,"[1]; single i.p. injection at 30 minutes post-surgery, eight weeks after DMM",significant reduction
same,proteoglycan loss and cartilage erosion (Safranin O/Fast Green),"[1]; single i.p. injection at 30 minutes post-surgery, eight weeks after DMM, vs saline",less proteoglycan loss and cartilage erosion
same,bone mineral density (BMD) at the tibia subchondral bone,[2],significantly decreased
same,bone volume fraction (BV/TV) at the tibia subchondral bone,[2],significantly decreased
same,trabecular separation (Tb.Sp) at the tibia subchondral bone,[2],elevated
same,trabecular thickness (Tb.Th) at the tibia subchondral bone,[2],significantly decreased
